In patent publication US20230416330A1, “Optimized GIP Peptide Analogues” (Antag Therapeutics ApS, priority 2019, published 2023):
Starred links: 1 amine or outer side, 2 acyl side, 3 side chain; linkers in the order of their positions; H or OH if unused. Non-standard residues stand in square brackets, D forms with d. Residues, ends and D or L forms follow the SMILES beside them. Groups on a side chain read outwards from the residue. *: point of attachment. C18 diacid = O=C(O)CCCCCCCCCCCCCCCCC(=O)*; C16 diacid = O=C(O)CCCCCCCCCCCCCCC(=O)*; γGlu = O=C(O)[C@H](CCC(=O)[*:2])N[*:1]; Glutaryl = O=C(CCCC(=O)[*:2])[*:1]; AEEA = NCCOCCOCC(=O)O; Aib = CC(C)(N)C(=O)O

T1: human GIP receptor (Homo sapiens, UniProt P48546)
T1 construct: host or cells: HEK-293 cells, transient transfection (Lipofectamine 2000), cDNA in pCMV-Script vector
T1 sequence (P48546 22-466): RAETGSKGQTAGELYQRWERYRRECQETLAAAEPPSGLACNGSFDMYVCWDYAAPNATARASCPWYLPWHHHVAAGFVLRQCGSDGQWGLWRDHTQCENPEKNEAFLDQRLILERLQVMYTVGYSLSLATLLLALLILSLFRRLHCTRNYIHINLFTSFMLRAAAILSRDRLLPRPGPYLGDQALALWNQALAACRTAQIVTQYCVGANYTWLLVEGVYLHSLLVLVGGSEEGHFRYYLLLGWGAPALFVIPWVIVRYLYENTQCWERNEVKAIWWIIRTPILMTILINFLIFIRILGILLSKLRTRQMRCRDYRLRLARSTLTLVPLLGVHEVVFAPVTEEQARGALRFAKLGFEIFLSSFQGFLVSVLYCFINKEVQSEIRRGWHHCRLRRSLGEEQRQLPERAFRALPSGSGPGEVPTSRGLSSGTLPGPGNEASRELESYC

T2: human GIP receptor (human, UniProt P48546 22-466)
T2 sequence (looked up): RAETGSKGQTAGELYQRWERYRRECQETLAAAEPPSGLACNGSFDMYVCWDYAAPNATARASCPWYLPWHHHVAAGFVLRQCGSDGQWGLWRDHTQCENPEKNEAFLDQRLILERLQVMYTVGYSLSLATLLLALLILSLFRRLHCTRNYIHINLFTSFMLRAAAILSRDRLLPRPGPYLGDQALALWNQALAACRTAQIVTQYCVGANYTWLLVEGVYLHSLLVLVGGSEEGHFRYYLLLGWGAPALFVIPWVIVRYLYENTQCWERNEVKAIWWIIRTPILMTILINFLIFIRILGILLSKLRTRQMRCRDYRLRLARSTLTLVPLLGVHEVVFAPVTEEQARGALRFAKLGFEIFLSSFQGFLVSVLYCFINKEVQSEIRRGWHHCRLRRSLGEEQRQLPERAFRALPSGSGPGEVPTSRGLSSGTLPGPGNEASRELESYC

B1: AT763 (peptide)
peptide: Glutaryl-GTFISDYSI[Aib]MDKIK(C16 diacid)QQDFVNWLLAQKPSSGAPPPS-OH
B2: AT762 (peptide)
peptide: Glutaryl-GTFISDYSIAMDKIK(C16 diacid)QQDFVEWLLAQKPSSGAPPPS-OH
SMILES: CC[C@H](C)[C@H](NC(=O)[C@H](CO)NC(=O)[C@H](Cc1ccc(O)cc1)NC(=O)[C@H](CC(=O)O)NC(=O)[C@H](CO)NC(=O)[C@@H](NC(=O)[C@H](Cc1ccccc1)NC(=O)[C@@H](NC(=O)CNC(=O)CCCC(=O)O)[C@@H](C)O)[C@@H](C)CC)C(=O)N[C@@H](C)C(=O)N[C@@H](CCSC)C(=O)N[C@@H](CC(=O)O)C(=O)N[C@@H](CCCCN)C(=O)N[C@H](C(=O)N[C@@H](CCCCNC(=O)CCCCCCCCCCCCCCC(=O)O)C(=O)N[C@@H](CCC(N)=O)C(=O)N[C@@H](CCC(N)=O)C(=O)N[C@@H](CC(=O)O)C(=O)N[C@@H](Cc1ccccc1)C(=O)N[C@H](C(=O)N[C@@H](CCC(=O)O)C(=O)N[C@@H](Cc1c[nH]c2ccccc12)C(=O)N[C@@H](CC(C)C)C(=O)N[C@@H](CC(C)C)C(=O)N[C@@H](C)C(=O)N[C@@H](CCC(N)=O)C(=O)N[C@@H](CCCCN)C(=O)N1CCC[C@H]1C(=O)N[C@@H](CO)C(=O)N[C@@H](CO)C(=O)NCC(=O)N[C@@H](C)C(=O)N1CCC[C@H]1C(=O)N1CCC[C@H]1C(=O)N1CCC[C@H]1C(=O)N[C@@H](CO)C(=O)O)C(C)C)[C@@H](C)CC
B3: AT760 (peptide)
peptide: EGTFISDYSIXMDKIKQQDFVNWLLAQKPSSGAPPPS
modifications: Aib at 13; C16-diacid on Lys18 side chain, no linker; C-terminal COOH; GIP(1-42) numbering

How the values were obtained:
human GIP receptor [1] = target: T1, human GIP receptor; experiment: cAMP assay Alternative 2 (Gaddum assay), antagonist potency pKb; format: cell-based; conditions: Table 2C; Gaddum equation, single antagonist dose; HEK-293 hGIPR; read-out: nM (Kb)
[2] = Solubility by visual inspection of peptide solutions; format: physicochemical; conditions: 1 mg/ml, TFA, Phosphate (7.4)
In short: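 Peptides dissolved at 1, 5, 7.5 or 15 mg/ml in 50 mM sodium phosphate pH 7.4 or water adjusted to pH 7.4 with NaOH, with gentle mixing. Immediate solubility judged visually as a clear, colorless solution.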

[3] = Physical stability: fibril formation in Thioflavin T (ThT) assay with agitation; format: physicochemical; conditions: 1 mg/ml, TFA, Phosphate (7.4); 25° C., agitation
In short: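 Peptides at 1, 5, 7.5 or 15 mg/ml in 50 mM sodium phosphate pH 7.4 or in water adjusted to pH 7.4 with NaOH, filtered 0.22 μm, with ThT added. Wells held a 3 mm silica bead under 300 rpm orbital agitation at 25° C. Emission at 486 nm tracked continuously; lag time = 10% of transition above baseline.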

human GIP receptor [4] = target: T2, human GIP receptor; experiment: cell-based or functional assay

Molecule	Kb (human GIP receptor [1]) [nM]	Visual appearance [2]	Avr lag time (h) [3]	nM (Kb, Schild analysis, cAMP) (human GIP receptor [4]) [nM]	pKb (Schild analysis, cAMP) (human GIP receptor [4])
CC[C@H](C)[C@H](NC(=O)[C@H](CCCCN)NC(=O)[C@H](CCC(=O)O)NC(=O)[C@H](CC(C)C)NC(=O)C(C)(C)NC(=O)[C@@H](NC(=O)[C@H](CO)NC(=O)[C@H](Cc1ccc(O)cc1)NC(=O)[C@H](CCC(=O)O)NC(=O)[C@H](CO)NC(=O)[C@@H](NC(=O)[C@H](Cc1ccccc1)NC(=O)[C@@H](NC(=O)CNC(=O)CCCC(=O)O)[C@@H](C)O)[C@@H](C)CC)[C@@H](C)CC)C(=O)N[C@@H](CCCCNC(=O)COCCOCCNC(=O)COCCOCCNC(=O)CC[C@H](NC(=O)CCCCCCCCCCCCCCCCC(=O)O)C(=O)O)C(=O)N[C@@H](CCC(N)=O)C(=O)N[C@@H](CCC(N)=O)C(=O)N[C@@H](CCC(=O)O)C(=O)N[C@@H](Cc1ccccc1)C(=O)N[C@H](C(=O)N[C@@H](CCC(=O)O)C(=O)N[C@@H](Cc1c[nH]c2ccccc12)C(=O)N[C@@H](CC(C)C)C(=O)N[C@@H](CC(C)C)C(=O)N[C@@H](C)C(=O)N[C@@H](CCC(N)=O)C(=O)N[C@@H](CCCCN)C(=O)N1CCC[C@H]1C(=O)N[C@@H](CO)C(=O)N[C@@H](CO)C(=O)NCC(=O)N[C@@H](C)C(=O)N1CCC[C@H]1C(=O)N1CCC[C@H]1C(=O)N1CCC[C@H]1C(=O)N[C@@H](CO)C(=O)O)C(C)C [AT705] (Glutaryl-GTFISEYSI[Aib]LEKIK([AEEA-AEEA-γGlu-C18 diacid])QQEFVEWLLAQKPSSGAPPPS-OH)	0.23	Clear	fnd (Fnd = fibrils not detected within experiment time (96 hours) with agitation.)	–	–
B1	–	–	–	0.14	9.9
B2	–	–	–	0.15	9.8
B3	–	–	–	0.46	9.3
